Laboratory results as given in paper PMC7737607 (The EMBO Journal, 2020).

Target: T1, Cap-Gly-CC1a-p150Glued-V5 (human, UniProt Q14203-1 1-358)
T1 construct: ATUM ordered gene ID #391071; also called Cap-Gly-CC1-p150Glued-V5; p150Glued-V5-tagged fragment; source: generated and purchased from ATUM Bio, purified (streptavidin-column based methods)
Test: pull-down; purified proteins mixed 1:1, with or without FLAG-EB1 WT or ΔY C-term, 1 h at 4°C in 20 mM Tris-HCl pH 7.4, 350 mM NaCl, 1 mM 2-mercaptoethanol; p150Glued-V5 fragment captured on anti-V5 antibody-coated beads, 2 h at 4°C; Western blot
Settings: both partners purified

T1 sequence (Q14203 1-358): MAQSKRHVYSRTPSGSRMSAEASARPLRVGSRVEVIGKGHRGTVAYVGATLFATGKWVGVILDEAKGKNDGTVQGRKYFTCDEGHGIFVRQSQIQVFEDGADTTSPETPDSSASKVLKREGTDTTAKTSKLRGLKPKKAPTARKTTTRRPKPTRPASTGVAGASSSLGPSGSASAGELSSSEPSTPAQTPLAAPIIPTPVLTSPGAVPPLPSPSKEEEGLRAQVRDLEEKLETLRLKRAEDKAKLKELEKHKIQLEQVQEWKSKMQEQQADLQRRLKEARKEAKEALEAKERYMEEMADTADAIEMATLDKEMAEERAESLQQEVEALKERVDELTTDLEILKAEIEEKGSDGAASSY

binding result: binds
B1: FLAG-EB1 WT C-term (domain or fragment, human, UniProt Q15691 191-268, looked up)
chain: DEAAELMQQVNVLKLTVEDLEKERDFYFGKLRNIELICQENEGENDPVLQRIVDILYATDEGFVIPDEGGPQEEQEEY
notes: ATUM ordered gene ID #394359; also called FLAG-EB1 C-terminal; FLAG-tagged EB1 WT; source: generated and purchased from ATUM Bio, purified (streptavidin-column based methods)
